Data published in patent US20250353883A1 (Novartis, published 2025).
Substitutions are numbered along the chain they refer to.

B1: Sso7d construct 4.1A03 (EGFR, Purif. No. 2) (designed binder)
chain: ATVKFTYQGEEKQVDISKIKIVDRYGQYIHFRYDEGGGANGWGWVSEKDAPKELLQMLEKQ
notes: Purified from E. coli on anti-APP columns; It is NGS hit no; 3, at 2.18%; also called Hit NO; not shown: APP tag of the vector
B2: Sso7d construct 4.2A08 (EGFR, Purif. No. 5) (designed binder)
chain: B1 chain with Y28N, R32Y
notes: Purified from E. coli on anti-APP columns; It is NGS hit 1, at 4.56%; also called Hit 1 NGS; not shown: APP tag of the vector
B3: Sso7d construct 4.2B11 (EGFR, Purif. No. 6) (designed binder)
chain: B1 chain with Y28N, R32N, N40W
notes: Purified from E. coli on anti-APP columns; It is NGS hit no; 24, at 0.89%; also called Hit No. 24; not shown: APP tag of the vector
B4: Sso7d construct 4.4E10 (EGFR, Purif. No. 7) (designed binder)
chain: B1 chain with R32Y, N40D
notes: Purified from E. coli on anti-APP columns; not shown: APP tag of the vector
B5: Sso7d construct 4.1A02 (EGFR, Purif. No. 1) (designed binder)
chain: B1 chain with Y28W, R32N, N40Y
notes: Purified from E. coli BL21(DE3) on anti-APP columns; It was found 1x on the plate and was not in the NGS Top30
B6: Sso7d construct 4.1H02 (EGFR, Purif. No. 4) (designed binder)
chain: B1 chain with Y28W, N40D
notes: as for B4

Target: T1, human EGFR on HKB11 cells stably over-expressing hEGFR (human, UniProt P00533 25-1210)
T1 construct: whole, on cells; The control lines were HKB11 w.t. cells, which express EGFR endogenously, and HKB11 EGFR knockout cells; also called HKB11_EGFR; HKB11-EGFR transfected
Assay: FACS of purified APP-tagged Sso7d on EGFR-overexpressing HKB11 cells versus EGFR knock out cells

Binder | binding result
B1 | binds
B2 | binds
B3 | binds
B4 | binds
B5 | binds
B6 | binds
